Ends that are not written are not given here.
Target: T1, AlPI (Homo sapiens, UniProt P01009)
T1 construct: Eff; II+III is a process intermediate in the Cohn plasma fractionation process; tissue Bayer Corporation (Clayton, N.C.); host or cells: plasma fraction: Cohn Effluent II+III
Test: Effect of peptide density on AlPI capture from Eff. II+III, 4M GdnHCl final strip
Format: binding
Conditions: 4° C.; for Mass AlPI per Eluate Fraction, 1M NaCl / Mass AlPI per Eluate Fraction, Flowthrough / Mass AlPI per Eluate Fraction, 4M GdnHCl: * Below detection limit
Procedure: The substitution density of the peptide VIFLVR (SEQ ID NO:37) on the Tosohaas resin was reduced by the varying the ratio of Fmoc-L-Ala/Boc-L-Ala following linkage of the Totda linker. A similar procedure was outlined previously (Buettner et al. 1997). The peptide was then synthesized onto these resins. A 1.0 ml aliquot of neat Eff. II+III was injected onto the columns, and the chromatography cycle was the same as used for other studies involving Eff. II+III. The one exception was the use of 4M guanidine hydrochloride (GdnHCl) in lieu of 2% acetic acid as the final strip.

T1 sequence (P01009 25-418): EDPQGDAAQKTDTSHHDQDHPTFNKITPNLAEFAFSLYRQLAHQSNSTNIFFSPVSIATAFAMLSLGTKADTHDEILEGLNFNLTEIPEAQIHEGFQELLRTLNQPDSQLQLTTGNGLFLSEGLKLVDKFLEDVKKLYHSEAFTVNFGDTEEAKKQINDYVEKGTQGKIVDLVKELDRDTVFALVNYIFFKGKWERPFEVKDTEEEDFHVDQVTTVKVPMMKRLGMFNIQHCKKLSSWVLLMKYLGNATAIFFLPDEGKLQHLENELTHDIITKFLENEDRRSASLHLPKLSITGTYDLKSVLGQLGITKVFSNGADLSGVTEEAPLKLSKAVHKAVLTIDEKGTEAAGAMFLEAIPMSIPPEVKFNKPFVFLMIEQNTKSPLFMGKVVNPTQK

VIFLVR
Percent Eluted by Fraction, 1M NaCl (peptide density 6 μmol/g): 12% | Percent Eluted by Fraction, 4M GdnHCl (peptide density 6 μmol/g): 0% | Percent Eluted by Fraction, Flowthrough (peptide density 6 μmol/g): 88% | Mass AlPI per Eluate Fraction, 1M NaCl (peptide density 6 μmol/g): 0.09 mg | Mass AlPI per Eluate Fraction, Flowthrough (peptide density 6 μmol/g): 0.69 mg | Percent Eluted by Fraction, 1M NaCl (peptide density 17 μmol/g): 44% | Percent Eluted by Fraction, 4M GdnHCl (peptide density 17 μmol/g): 7% | Percent Eluted by Fraction, Flowthrough (peptide density 17 μmol/g): 49% | Mass AlPI per Eluate Fraction, 1M NaCl (peptide density 17 μmol/g): 0.36 mg | Mass AlPI per Eluate Fraction, 4M GdnHCl (peptide density 17 μmol/g): 0.05 mg | Mass AlPI per Eluate Fraction, Flowthrough (peptide density 17 μmol/g): 0.39 mg | Percent Eluted by Fraction, 1M NaCl (peptide density 54 μmol/g): 0% | Percent Eluted by Fraction, 4M GdnHCl (peptide density 54 μmol/g): 74% | Percent Eluted by Fraction, Flowthrough (peptide density 54 μmol/g): 26% | Mass AlPI per Eluate Fraction, 4M GdnHCl (peptide density 54 μmol/g): 0.57 mg | Mass AlPI per Eluate Fraction, Flowthrough (peptide density 54 μmol/g): 0.20 mg | Percent Eluted by Fraction, 1M NaCl (peptide density 62 μmol/g): 0% | Percent Eluted by Fraction, 4M GdnHCl (peptide density 62 μmol/g): 83% | Percent Eluted by Fraction, Flowthrough (peptide density 62 μmol/g): 17% | Mass AlPI per Eluate Fraction, 4M GdnHCl (peptide density 62 μmol/g): 0.70 mg | Mass AlPI per Eluate Fraction, Flowthrough (peptide density 62 μmol/g): 0.14 mg | Percent Eluted by Fraction, 1M NaCl (peptide density 70 μmol/g): 0% | Percent Eluted by Fraction, 4M GdnHCl (peptide density 70 μmol/g): 72% | Percent Eluted by Fraction, Flowthrough (peptide density 70 μmol/g): 28% | Mass AlPI per Eluate Fraction, 4M GdnHCl (peptide density 70 μmol/g): 0.69 mg | Mass AlPI per Eluate Fraction, Flowthrough (peptide density 70 μmol/g): 0.26 mg | Percent Eluted by Fraction, 1M NaCl (peptide density 100 μmol/g): 0% | Percent Eluted by Fraction, 4M GdnHCl (peptide density 100 μmol/g): 82% | Percent Eluted by Fraction, Flowthrough (peptide density 100 μmol/g): 18% | Mass AlPI per Eluate Fraction, 4M GdnHCl (peptide density 100 μmol/g): 0.57 mg | Mass AlPI per Eluate Fraction, Flowthrough (peptide density 100 μmol/g): 0.13 mg

Source: US5985836A, “Alpha-1 proteinase inhibitor binding peptides” (Bayer Corporation, priority 1998, dated 1999)
